In patent US20210017269A1:

Tests used:
[1] = target: human complement component C1q (human) (UniProt P02745); assay: ProteOn XPR36 SPR, antibody immobilised, C1q as analyte, equilibrium model
[2] = target: human Fc gamma receptors (FcγR) (human); assay: ProteOn XPR36 SPR, His-tagged receptors captured, antibody as analyte, 25 °C, equilibrium model

human complement component C1q (human), sequence (P02745 23-245 limits assumed, chain 1 of 3): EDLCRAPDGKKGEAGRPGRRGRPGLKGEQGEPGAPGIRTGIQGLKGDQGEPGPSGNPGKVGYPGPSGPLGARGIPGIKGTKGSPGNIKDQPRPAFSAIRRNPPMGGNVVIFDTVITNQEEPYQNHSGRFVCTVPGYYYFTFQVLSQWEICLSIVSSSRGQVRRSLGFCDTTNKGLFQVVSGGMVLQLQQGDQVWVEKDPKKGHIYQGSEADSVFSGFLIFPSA
human complement component C1q (human), sequence (P02746 28-253 limits assumed, chain 2 of 3, further chain): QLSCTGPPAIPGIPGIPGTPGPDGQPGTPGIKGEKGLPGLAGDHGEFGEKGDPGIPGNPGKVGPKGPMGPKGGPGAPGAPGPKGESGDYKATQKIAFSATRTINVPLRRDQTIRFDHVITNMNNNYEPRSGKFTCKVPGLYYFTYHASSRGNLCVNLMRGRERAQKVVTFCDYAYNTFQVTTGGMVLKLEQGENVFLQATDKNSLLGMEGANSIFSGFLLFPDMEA
human complement component C1q (human), sequence (P02747 29-245 limits assumed, chain 3 of 3, further chain): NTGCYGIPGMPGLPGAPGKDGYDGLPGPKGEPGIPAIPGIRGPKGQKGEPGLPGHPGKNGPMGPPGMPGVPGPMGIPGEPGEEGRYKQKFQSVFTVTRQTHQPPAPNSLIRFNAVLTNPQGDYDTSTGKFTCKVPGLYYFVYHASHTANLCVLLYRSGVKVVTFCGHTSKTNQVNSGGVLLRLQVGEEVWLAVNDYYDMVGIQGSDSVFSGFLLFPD

Substance: IgG1 wildtype isotype control (antibody)
- Kd [1]: 465 nM

Substance: YTE containing control antibody
- fold lower affinity than the human IgG1 wild type control [2]: 1.5 fold
